Laboratory results taken from patent US20240026407A1, “MODIFICATION OF SAPONINS” (GLAXOSMITHKLINE BIOLOGICALS SA, priority 2020, published 2024).

B1: 1026 (protein, listed as Pseudarthrobacter chlorophenolicus)
chain: MTAPARLRAEHLREAMGLAVREPRLSWTPPAATAGQTAYRIMADNGWDTGRIASAESGGIAYGGPALDSRSRFDWRVRTWNVDSDGTETASDWSESMPVELGLLHPSDWTGQWISPGEEAVSPPGERPGYALTRTFTLPAAPDKARAYATAHGIYELFINGQRVGDQQLTPGSTSYNTTLQVQAYDVTALLTAGLNTIRAVLTDGWYRGTFGYTRDADMYGTHTAFLAQLELESEAGRQVIGTDPSWLVSATEVISADLMAGQRVDFRAYDTGSAPSAGKAPGVRAAVVRPGSFGALTGPLAPPTRVTEELAPVSITRLRNGHQVVDFGQNIHGWVRLAALGGPGETVTLEYGEALGRDGDVTRDHLRPHDFRVPGAFLDAGQVDTVTASGAPGEVFEPRHTSHGFQFVSVRGLATDLRPRDVTACLVRTDLERIGTFHCSDERLNKLHGIVEWSFLGNSCEVPTDCPQREKAGWTGDWQLFVPTAAYLYDVTGFTRKWLRDVRADQWDNGVIANISPSPGPAITSAEFMGFTNGSSGWGDAIVMVPWEAYLATGDASILAENWDAMNRWLGFVRTTAETRRHAARATQAPVPADHEKYLWDTGFHFGEWMEPDGPGPDLFASRTADNGIVATAYYRHTTDLMARIARALGLAAEAADLARLSDAIRDAWATEYLDESGRVTVASQANCVRALAFQLAGTEHRAAVTTQLVELIRDAGTHLGTGFLATPYLLPVLADHGHLGLAYELLMQDSEPSWLAMVDRGATTVWELWNGLDAGGAPHQSLNHYSKGAVVSFLHRYTAGLRQAPGSAGWNRIIIEPRPGAGLTSAATSHQGPHGPITVAWTLSTDALGPDEMTADGVLTLTADIPSGTTAEILLPGQPAAVVGPGHHVFSAATGGDTAHPELMRSTL
B2: 1050 (protein, listed as Streptomyces bottropensis)
chain: MNNAPYDLRIDTGGDQFAVSGPAPRLSWKPPSDTGHPAGYELECTVDGDAQPALRVAPGRHRFLPWPWAALGSGRQVEWRVRADGPGGPTPWSEWNAFEVGLLDEDWQARWISPAESGDPGYGKRPAHTLTARFEVRAGVRSARLYATALGLYEAYVNGERAGTAELSPGSTSYDRTLHAQASDVTAAVRAGGNLVEIVLSDGWYRGQVGAFRLPAGWGTVLGARAELHIAYEDGSRQVVRSDETWTSTRSAITRADLMDGQSTDFRAGRDTEQPVLVDRVEAAAIDWSPAPPVRVVASRPAQSVKQLRDGLWIADFGQNASGRLAVGDLGPAGTRTVIDYGEHVGPDGDLTTAHLDSSRPGEEPIPFVQRDEVVSMGRGETFEPRHTVHGFQYARIRRDGAPLDPASLTMRVVHTDLRRAGSFACSDDDLNRLHEIADWSFRGNAVDVPTDCPTRERLAWTGDYQVFAPTATRLYDVLGFSRKWLRSVRDDQLPDGRIANFSPDGRRIKHHLDDQFAMMTGSAGWGDAIVAVPWELYQSYGDQEILAENWEAMVRWVEWALRTARTARHHSRRERSAEPRPHERYLWDGSFHWGEWTEPRTKTADGTRIDPVKTDPVAWFMADKGEVGTAFLYRSTSTLADVARVLGRTEDAARYAETAEHVRDAWRTEFLTPDGRTTGDTQAGYVRALSLGLVPAELRPAAAARLVELIRSAGTHLGTGFLATGDLLPVLADTGHTDMAYELLLRRTAPSWLYMLDHGATTIWEDWEGIDENGDAHDSLNHYSKGAVIRFLHTHTLGLRQAPGSVAWESVEVAPVPHPSLTWARGTHESPQGTIAVEWRTTGDELTLAVDVPPATTARVVFPDGTTETATTGTFRATRRITCASSARSARAPGDEPLVRSEGATD

Tests used:
Type in all cases: biochemical, Quillaja saponaria
[1] = Experiment 6-1: screening of rhamnosidases for derhamnosylation of saponins in treated bark extract (2%), QS-17 2310 to QS-18 2164 (PAR %); settings: TBE 2%, pH 7.5, 30 degC, 18 h; TIC peak area ratio percent, LCMS/MS; negative controls 3.061, 2.429
[2] = Experiment 6-1: screening of rhamnosidases for derhamnosylation of saponins in treated bark extract (2%), desglucosyl-QS-17 2134 to QS-21 1988 (PAR %); settings: TBE 2%, pH 7.5, 30 degC, 18 h; TIC peak area ratio percent, LCMS/MS; negative controls 2.719, 2.158
[3] = Experiment 6-1: screening of rhamnosidases for derhamnosylation of saponins in treated bark extract (2%), QS-17 2296 to QS-18 2150 (PAR %); settings: TBE 2%, pH 7.5, 30 degC, 18 h; TIC peak area ratio percent of rhamnosylated starting saponin to derhamnosylated product, LCMS/MS; negative controls 4.876, 5.225
[4] = Experiment 6-1: specificity of rhamnosidases towards other rhamnose residues (C3 saccharide rhamnose, C28 saccharide rhamnose); settings: TBE 2%, pH 7.5, 30 degC, 18 h; LCMS/MS; negative controls 0.18, 0.17

Molecule	Peak57 (PAR %) [1] [%]	Peak75 (PAR %) [2] [%]	QS-17 (PAR %) [3] [%]	ratio PP/QS-21 [4]
B1	2.755	2.501	5.271	0.17
B2	2.305	2.528	5.251	0.17
